From patent EP3250590B1 (Academia Sinica, dated 2021)

Target: T1, BSA (bovine, UniProt P02769 25-607)
T1 construct: also called BSA control protein; bovine serum albumin
Assay: ELISA, intact IgG on coated BSA

T1 sequence (P02769 25-607 limits assumed): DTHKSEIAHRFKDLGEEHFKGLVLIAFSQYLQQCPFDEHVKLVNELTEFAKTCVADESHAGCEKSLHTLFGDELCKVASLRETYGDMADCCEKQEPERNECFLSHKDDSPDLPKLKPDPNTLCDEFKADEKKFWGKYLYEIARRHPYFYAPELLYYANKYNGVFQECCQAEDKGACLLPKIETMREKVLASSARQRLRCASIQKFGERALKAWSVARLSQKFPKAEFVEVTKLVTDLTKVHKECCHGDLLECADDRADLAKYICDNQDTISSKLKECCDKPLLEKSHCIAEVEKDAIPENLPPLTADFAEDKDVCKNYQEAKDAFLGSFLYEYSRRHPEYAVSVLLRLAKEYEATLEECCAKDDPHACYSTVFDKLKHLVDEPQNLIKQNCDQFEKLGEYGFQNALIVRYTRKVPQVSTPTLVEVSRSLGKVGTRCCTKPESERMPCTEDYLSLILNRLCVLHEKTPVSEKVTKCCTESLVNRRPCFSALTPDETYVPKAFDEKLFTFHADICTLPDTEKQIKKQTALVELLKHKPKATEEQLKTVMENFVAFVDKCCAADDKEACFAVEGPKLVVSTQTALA

binding result | Binder
no binding | 3rd humanized MC41 IgG (antibody, V domains shown, also called 3rd-hMC41) VH: QVQLKESGPGLVAPSKTLSLTCTVSGFSLSSQGVYWIRQPPGKGLEWIGAIWAGGSTNYNSALMSRLSISKDNSKSQVFLKMNSLQTDDTAMYYCARVDGYRGYNMDYWGQGTSVTVSS VL: ENVLTQSPAIMSATPGEKVTMTCSASSSVSYMHWYQQKSSTSPKLWIYDTSKLASGVPGRFSGSGSGNSYTLTISSMEAEDVATYYCFQGSGYPLTFGAGTKLEIKR
no binding | chimeric MC41 (antibody, V domains shown, Chimeric intact IgG of murine MC41; also called chMC41) VH: QVQLKESGPGLVAPSKSLSITCTVSGFSLSSQGVYWVRQPPGKGLEWLGAIWAGGSTNYNSALMSRLSISKDNSKSQVFLKMNSLQTDDTAMYYCARVDGYRGYNMDYWGQGTSVTVSS VL: ENVLTQSPAIMSASPGEKVTMTCSASSSVSYMHWYQQKSSTSPKLWIYDTSKLASGVPGRFSGSGSGNSYSLTISSMEAEDVATYYCFQGSGYPLTFGAGTKLELKR
no binding | 2nd humanized MC41 IgG (antibody, V domains shown, also called hMC41; humanized 2nd IgG) VH: QVQLKESGPGLVAPSKTLSLTCTVSGFSLSSQGVYWIRQPPGKGLEWIGAIWAGGSTNYNSALMSRLSISKDNSKSQVFLKMNSLQTDDTAMYYCARVDGYRGYNMDYWGQGTLVTVSS VL: ENVLTQSPAIMSATPGEKVTMTCSASSSVSYLHWYQQKSSTSPKLWIYDTSKLASGVPGRFSGSGSGNSYTLTISSMEAEDVATYYCFQGSGYPLTFGAGTKLEIKR
